# Reference: article PMC6981927, “In Situ Proteolysis Condition-Induced Crystallization of the XcpVWX Complex in Different Lattices” (International Journal of Molecular Sciences, 2020)
# B1: XcpW (28–237), soluble truncation of the minor pseudopilin XcpW (domain or fragment)
# chain: RMFDSVMQTDQATRVQEQRMRELVRAMGALERDLTQAVERPVRDELGDNRGAFLSEGENDQIVEFTRGGWRNPLGQARSRLQRVRWSLSGETLERRYWLVLDRAQDSKPRVQQVLDGVTALSWRFLDKEHNWQGHWPTDEGSEEERLESLPLAVEMTLEHRHYGKLVRVWRLLDPPLKQDQPQGQPGGENGENGEGGVPQPPEGMPGAPE
# notes: XcpW, minor pseudopilin of the type II secretion system, Pseudomonas aeruginosa PAO1, residues 28-237; Tags removed by TEV protease; residues left from the TEV site and the cloning site may remain at the N-terminus; In the crystals the complex was under in situ chymotrypsin proteolysis; source: E. coli (BL21 (DE3); results say codon plus cells), purified (Ni-NTA, TEV cleavage, second Ni-NTA, SEC …)
# B2: XcpV (28–129), soluble truncation of the minor pseudopilin XcpV (domain or fragment)
# chain: SASARSLQNASRLEDKTLAMWIADNRLNELQLEQTPPSSGRNQGELEFAGRRWEWRTQVDSTAEQDMRRVIVWVAAKPLGRERGSIEERAAARLVGFLGSQP
# notes: XcpV, minor pseudopilin of the type II secretion system, Pseudomonas aeruginosa PAO1, residues 28-129; Tags removed by TEV protease; residues left from the TEV site and the cloning site may remain at the N-terminus; In the crystals the complex was under in situ chymotrypsin proteolysis; loops 59-66 and 103-113 are missing in the model of 6UTU; source: E. coli (BL21 (DE3)); results say codon plus …
# Tests used:
# [1] = molecular target: T1, XcpX (29–313), soluble truncation of the minor pseudopilin XcpX (Pseudomonas aeruginosa PAO1, UniProt Q00518 29-313); assay: SEC; three purified tag-free pseudopilins mixed at a molar ratio of 1.5:1:1 (XcpV:XcpW:XcpX), 4 °C overnight; Superdex 75, 25 mM HEPES pH 7.0, 150 mM NaCl, 1 mM CaCl2; peak fractions analysed by SDS-PAGE; conditions: both partners purified
# T1 construct: XcpX, minor pseudopilin of the type II secretion system, Pseudomonas aeruginosa PAO1, residues 29-313; Tags removed by TEV protease; residues left from the TEV site and the cloning site may remain at the N-terminus; In the crystals the complex was under in situ chymotrypsin proteolysis; some loops are missing in the model of 6UTU; source: E. coli (BL21 (DE3); results say codon plus cells), …
# T1 sequence: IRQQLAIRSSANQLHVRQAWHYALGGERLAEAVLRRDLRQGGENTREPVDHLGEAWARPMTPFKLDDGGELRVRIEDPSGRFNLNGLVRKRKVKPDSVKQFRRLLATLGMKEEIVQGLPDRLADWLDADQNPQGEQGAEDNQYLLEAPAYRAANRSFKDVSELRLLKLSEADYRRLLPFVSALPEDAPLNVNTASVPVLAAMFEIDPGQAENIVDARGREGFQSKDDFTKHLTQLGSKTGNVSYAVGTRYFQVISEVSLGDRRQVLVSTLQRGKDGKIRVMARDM
# [2] = molecular target: B1; assay: as above; conditions: both partners purified
Binder,stoichiometry N [1],stoichiometry N [2]
B1,~1,
B2,~1,~1
